According to publication PMC11178869:

B1: TatC with C-terminal hexahistidine tag, wild type (TatABC system) [E. coli] / TatA [E. coli] (parent)
chain 1: MGGISIWQLLIIAVIVVLLFGTKKLGSIGSDLGASIKGFKKAMSDDEPKQDKTSQDADFTAKTIADKQADTNQEQAKTEDAKRHDKEQV
chain 2: MSVEDTQPLITHLIELRKRLLNCIIAVIVIFLCLVYFANDIYHLVSAPLIKQLPQGSTMIATDVASPFFTPIKLTFMVSLILSAPVILYQVWAFIAPALYKHERRLVVPLLVSSSLLFYIGMAFAYFVVFPLAFGFLANTAPEGVQVSTDIASYLSFVMALFMAFGVSFEVPVAIVLLCWMGITSPEDLRKKRPYVLVGAFVVGMLLTPPDVFSQTLLAIPMYCLFEIGVFFSRFYVGKGRNREEENDAEAESEKTEE
B2: TatC with C-terminal hexahistidine tag, wild type (TatABC system) [E. coli] / TatB [E. coli] (parent)
chain 1: MFDIGFSELLLVFIIGLVVLGPQRLPVAVKTVAGWIRALRSLATTVQNELTQELKLQEFQDSLKKVEKASLTNLTPELKASMDELRQAAESMKRSYVANDPEKASDEAHTIHNPVVKDNEAAHEGVTPAAAQTQASSPEQKPETTPEPVVKPAADAEPKTAAPSPSSSDKP
chain 2: B1 chain 2

Variants of: B1
Test: affinity purification (H6-tagged TatC) with SDS-PAGE/Western-blot band quantification
Conditions: eight replicates, read off a plot

Going from chain 2 Y154A to chain 2 I50Y, the response falls from 1.6 signal ratio to 1.3 signal ratio.

In the case of chain 2 L189A, the response is reported as 0.67 signal ratio.

Variants of: B2
Test: as above
Conditions: eight replicates, read off a plot

Compared with chain 2 L189A, chain 2 Y154A is lower in response: 0.97 signal ratio for the first, 0.81 signal ratio for the second.

chain 2 I50Y gave a response of 0.86 signal ratio.
